# Reference: patent US20130089544A1
# What was measured:
# [1] = biological target: human ErbB2, full length, on cells (human) (UniProt P04626); test: cell-based or functional assay
# [2] = biological target: human ErbB2 ECD-myc/His fusion protein (human) (UniProt P04626); test: SPR, Biacore T100 high resolution; mAb captured on goat anti-human IgG, hHer-2(ECD)cMyc injected; 1:1 fit
substance,measurement,setting,value
chimeric anti-hErbB2 antibody 2C4,"% Inhibition @10 µg/ml, Heregulin-induced MCF7 cell proliferation",[1],90%
same,"EC50 (ng/ml) n1, inhibition of Heregulin-induced ErbB2 phosphorylation in MCF7 cells",[1],43.6 ng/mL
same,"EC50 (ng/ml) n2, inhibition of Heregulin-induced ErbB2 phosphorylation in MCF7 cells",[1],14.6 ng/mL
same,"EC50 (ng/ml), inhibition of Heregulin-induced MCF7 cell proliferation",[1],404 ng/mL
same,"EC50 (ng/ml), inhibition of SKBR3 cell proliferation",[1],> 36000 ng/mL
same,"N1 % Inhibition @40 µg/ml, BT474 cell proliferation",[1],-9%
same,"N1 EC50 (ng/ml), inhibition of BT474 cell proliferation",[1],> 40000 ng/mL
same,"N2 EC50 (ng/ml), inhibition of BT474 cell proliferation",[1],4750 ng/mL
same,Kd,[2],3.2 nM
